Laboratory results published in US20230295305A1.

Molecular target: biotinylated pHLA: HLA subtype A*02:01 complexed with … (HLA-PEPTIDE target G8) (human)
Assay: MSD U-PLEX, periplasmic extract on biotinylated pHLA; ratio of target signal to OTLA signal

Average Target/OTLA: 1
Target/OTLA 61: 1
Target/OTLA 67: 2
Target/OTLA 246: 1
Target/OTLA 250: 1
Substance: Negative control (MSD screen)
